{"source": "patent US20170189508A1", "about": "(IMMATICS BIOTECHNOLOGIES, published 2017)", "key": {"HLA-A*02 [1]": {"molecular_target": "HLA-A*02 (human)"}, "HLA-A*02 [2]": {"molecular_target": "HLA-A*02 (human)", "assay": "as the table's title states"}}, "note": "Like-named read-outs stand apart in the source and are kept apart here."}
{"binder": "AILAHLNTV", "note": "[AILAHLNTV (SEQ ID NO: 229)]", "values": [{"measurement": "binding result", "setting": "HLA-A*02 [1]", "value": "binds"}]}
{"binder": "KLQNIMMLL", "note": "[KLQNIMMLL (SEQ ID NO: 230)]", "values": [{"measurement": "binding result", "setting": "HLA-A*02 [1]", "value": "binds"}]}
{"binder": "KIIDFLSAL", "note": "[KIIDFLSAL (SEQ ID NO: 235)]", "values": [{"measurement": "binding result", "setting": "HLA-A*02 [1]", "value": "binds"}]}
{"binder": "RLMEENWNA", "note": "[RLMEENWNA (SEQ ID NO: 27)]", "values": [{"measurement": "binding result", "setting": "HLA-A*02 [2]", "value": "binds"}]}
